The RNAGym collection of RNA variant scans (doi:10.7554/elife.80360)

B1: Twister Ribozyme (parent)
chain: AACACUGCCAAUGCCGGUCCCAAGCCCGGAUAAAAGUGGAGGGGGCGG

Variants of: B1
Assay: self-cleavage, relative activity (ratio to wild type); higher = more cleavage; co-transcriptional

| Variant | self-cleavage |
| --- | --- |
| C27U A34G | 0.483 |
| A11U G24U | 0.105 |
| A4U C14U | 0.13 |
| A10C C46A | 0.898 |
| C20U G28C | 0.774 |
| G13C U31A | 0.767 |
| A10G G39U | 0.287 |
| A10G G39C | 0.119 |
| A34G A40C | 0.198 |
| U12A G16C | 0.688 |
| C3U G42C | 0.159 |
| C3U A23G | 0.101 |
| A34G C46G | 0.815 |
| G13C A40G | 0.0963 |
| G36U C46G | 0.313 |
| A34C A35C | 0.694 |
| C15G G17C | 0.157 |
| U18G G24C | 0.117 |
| G24C G43A | 0.0738 |
| A33U G38A | 0.946 |
| C25U G38U | 0.614 |
| A4G G47U | 0.902 |
| A2C G43A | 0.1 |
| G13A G44A | 1.04 |

| Variant | self-cleavage |
| --- | --- |
| A2G C3A | 0.171 |
| G13U C26A | 0.129 |
| C19G G45A | 0.321 |
| A4C A34C | 0.0803 |
| G16A G43A | 0.261 |
| C5G G16A | 0.341 |
| A1U G16U | 0.0446 |
| A11G G48C | 1.09 |
| U18C C46U | 0.599 |
| U18C C46G | 0.477 |
| C8A G39U | 0.123 |
| A23C C26A | 0.199 |
| G13A G16U | 0.168 |
| G17C A35G | 0.0629 |
| G29A G44C | 0.803 |
| A33G U37C | 0.532 |
| A2U | 0.738 |
| C26G C27A | 0.107 |
| U37G G41U | 0.145 |
| A2C C14U | 0.0681 |
| A4U G36C | 0.0838 |
| U31A A34U | 1.07 |
| G29A G43C | 0.163 |
| C9A G17A | 0.109 |

| Variant | self-cleavage |
| --- | --- |
| C14G C19A | 0.0588 |
| U6G G47C | 0.179 |
| A10C A30U | 1.11 |
| A11C G29C | 0.668 |
| A11U C21G | 0.0514 |
| C19U G36C | 0.129 |
| C3A C21A | 0.0913 |
| A1C G41U | 0.199 |
| U6G C26A | 0.0837 |
| U6A U31C | 1.07 |
| G39U G47A | 0.14 |
| A2G C26G | 0.035 |
| G7A G29A | 0.325 |
| G7C C14G | 0.0351 |
| G13C C14A | 0.593 |
| G7U A40G | 0.0793 |
| A11C G38C | 0.731 |
| A32G G41A | 0.518 |
| C3G G41U | 0.142 |
| G36U G44A | 0.717 |
| G16A U37A | 0.457 |
| C8G A33U | 0.279 |
| C5U G24U | 0.0614 |
| C19A G24A | 0.0849 |

| Variant | self-cleavage |
| --- | --- |
| U18A G44C | 0.448 |
| C3U G45A | 0.422 |
| C25A U31A | 0.0924 |
| A2G G17A | 0.113 |
| A1C A30C | 0.199 |
| A23G G47C | 0.209 |
| A4U A23G | 0.0721 |
| U6A C15A | 0.358 |
| A10C G47A | 0.834 |
| A4C C15A | 0.12 |
| U31A | 0.751 |
| C15A G29C | 0.156 |
| U12G A33C | 0.685 |
| A33G A34G | 0.253 |
| A2U U6G | 0.0884 |
| G13A G39C | 0.168 |
| U12C A40G | 0.107 |
| A23C G42A | 0.113 |
| C5G G44U | 0.646 |
| C9A U31G | 0.777 |
| C9A U31C | 0.765 |
| G16U A40C | 0.156 |
| C5U U18G | 0.066 |
| G42U G43A | 0.129 |

| Variant | self-cleavage |
| --- | --- |
| G7A C15A | 0.111 |
| C5G A40U | 0.0886 |
| C14G C21G | 0.0402 |
| C27A G48C | 0.563 |
| A1G A33U | 0.512 |
| C8U G24U | 0.177 |
| G38A | 0.965 |
| G17U C46A | 0.274 |
| C9A A32U | 0.558 |
| A4G A40G | 0.17 |
| C21G G45A | 0.114 |
| A32C G38U | 0.723 |
| U6A G28U | 0.604 |
| G42C G45U | 0.164 |
| G38C C46U | 0.855 |
| A4G U12A | 1.17 |
| A4G U12G | 0.673 |
| C26U A30G | 0.419 |
| A11C C15U | 0.545 |
| C25G G29C | 0.109 |
| C21U G47C | 0.0939 |
| A23C U31G | 0.274 |
| G28U G38A | 0.763 |
| C25A G48U | 0.0867 |

| Variant | self-cleavage |
| --- | --- |
| C26U U37C | 0.116 |
| A4C C14G | 0.0948 |
| G24A G28U | 0.0869 |
| U6A A35G | 0.807 |
| U31A A40G | 0.0937 |
| U31A A40U | 0.136 |
| G28C U31C | 0.938 |
| C14A A30C | 0.819 |
| G16U A32C | 1.1 |
| G7A C9G | 0.0915 |
| A11U G17U | 0.264 |
| A23G U31G | 0.746 |
| A2G C14A | 0.291 |
| A40G G41A | 0.141 |
| G16A A40C | 0.122 |
| C20U U31C | 1.03 |
| C19G A30C | 0.0929 |
| U18G G47A | 0.0493 |
| C26G C46U | 0.361 |
| C5U G7U | 0.0676 |
| G16A G29U | 0.663 |
| U6C G41A | 0.117 |
| G41C G47C | 0.162 |
| A35U G41C | 0.206 |

| Variant | self-cleavage |
| --- | --- |
| G16C G41A | 0.143 |
| G7A A11U | 0.573 |
| U6C A34U | 0.333 |
| C8A G24A | 0.18 |
| G7C G36A | 0.0583 |
| G7U C15G | 0.0331 |
| G16A G36C | 0.133 |
| C14G A23G | 0.103 |
| A4G A32U | 0.945 |
| U12C C27U | 0.951 |
| U6A U37A | 0.142 |
| G29C G39A | 0.143 |
| A1U A34C | 0.092 |
| C21A A34G | 0.052 |
| U37C G44A | 0.69 |
| U18C G45A | 0.48 |
| C3A G13A | 0.207 |
| A32G C46A | 0.753 |
| A22U A32U | 0.71 |
| C3G G13C | 0.124 |
| A10U G41U | 0.61 |
| U18G G43A | 0.0708 |
| G13U C21A | 0.0794 |
